PMC7817217 (Proceedings of the National Academy of Sciences of the …, 2020)
Residue numbers refer to the chain shown, from its start.

B1: bACE2-Rm (H41-Q42) mutant, mouse Fc tagged (Fc fusion)
chain: STTEDEAKKFLDKFNSKAEDLSHQSSLASWDYNTNISDENVQKMDEAGAKWSAFYEEQSKLAKNYPLEEIQNDTVKRQLQILQQSGSPVLSEDKSKRLNSILNAMSTIYSTGKVCKPNNPQECLLLEPGLDNIMGTSKDYNERLWAWEGWRAEVGKQLRPLYEEYVVLKNEMARGYHYEDYGDYWRRDYETEESSGPGYSRDQLMKDVDRIFTEIKPLYEHLHAYVRAKLMDTYPLHISPTGCLPAHLLGDMWGRFWTNLYPLTVPFGQKPNIDVTDAMLNQGWDANRIFKEAEKFFVSVSLPKMTEGFWNKSMLTEPGDGRKVVCHPTAWDLGKGDFRIKMCTKVTMEDFLTAHHEMGHIQYDMAYASQPYLLRNGANEGFHEAVGEVMSLSVATPKHLKTMGLLSPDFREDDETEINFLLKQALNIVGTLPFTYMLEKWRWMVFKGEIPKEEWMKKWWEMKREIVGVVEPVPHDETYCDPASLFHVANDYSFIRYYTRTIFEFQFHEALCRIAQHNGPLHKCDISNSTDAGKKLHQMLSVGKSQAWTKTLEDIVDSRNMDVGPLLRYFKPLYTWLQEQNRKSYVGWNTDWSPYAD
B2: bACE2-Rm (Y41-Q42) mutant, mouse Fc tagged (Fc fusion)
chain: B1 chain with H23Y

Target: SARS-CoV-2 spike protein receptor binding domain (RBD) (SARS-CoV-2, UniProt P0DTC2 319-541)
Assay: SPR

Binder | Kd [nM]
B1 | 2220
B2 | 250
